Laboratory results: paper PMC5906670, “Structural basis of epilepsy-related ligand–receptor complex LGI1–ADAM22” (Nature Communications, 2018)

B1: ADAM22 ECD-FLAG [human] / LGI1-His6 [human] (parent)
chain 1: SKRQLRRYPRNVEEETKYIELMIVNDHLMFKKHRLSVVHTNTYAKSVVNMADLIYKDQLKTRIVLVAMETWATDNKFAISENPLITLREFMKYRRDFIKEKSDAVHLFSGSQFESSRSGAAYIGGICSLLKGGGVNEFGKTDLMAVTLAQSLAHNIGIISDKRKLASGECKCEDTWSGCIMGDTGYYLPKKFTQCNIEEYHDFLNSGGGACLFNKPSKLLDPPECGNGFIETGEECDCGTPAECVLEGAECCKKCTLTQDSQCSDGLCCKKCKFQPMGTVCREAVNDCDIRETCSGNSSQCAPNIHKMDGYSCDGVQGICFGGRCKTRDRQCKYIWGQKVTASDKYCYEKLNIEGTEKGNCGKDKDTWIQCNKRDVLCGYLLCTNIGNIPRLGELDGEITSTLVVQQGRTLNCSGGHVKLEEDVDLGYVEDGTPCGPQMMCLEHRCLPVASFNFSTCLSSKEGTICSGNGVCSNELKCVCNRHWIGSDCNTYFPHNDDAKTGITLSG
chain 2: KKPAKPKCPAVCTCTKDNALCENARSIPRTVPPDVISLSFVRSGFTEISEGSFLFTPSLQLLLFTSNSFDVISDDAFIGLPHLEYLFIENNNIKSISRHTFRGLKSLIHLSLANNNLQTLPKDIFKGLDSLTNVDLRGNSFNCDCKLKWLVEWLGHTNATVEDIYCEGPPEYKKRKINSLSSKDFDCIITEFAKSQDLPYQSLSIDTFSYLNDEYVVIAQPFTGKCIFLEWDHVEKTFRNYDNITGTSTVVCKPIVIETQLYVIVAQLFGGSHIYKRDSFANKFIKIQDIEILKIRKPNDIETFKIENNWYFVVADSSKAGFTTIYKWNGNGFYSHQSLHAWYRDTDVEYLEIVRTPQTLRTPHLILSSSSQRPVIYQWNKATQLFTNQTDIPNMEDVYAVKHFSVKGDVYICLTRFIGDSKVMKWGGSSFQDIQRMPSRGSMVFQPLQINNYQYAILGSDYSFTQVYNWDAEKAKFVKFQELNVQAPRSFTHVSINKRNFLFASSFKGNTQIYKHVIVDLSA

Variants of: B1
Assay: pull-down
Details: with LGI1-His6 [human]; Ni-NTA agarose; proteins secreted from HEK293T cells; n = 5 independent experiments; read off a plot

Going from chain 1 Y186A to chain 1 D183A, the percent of parent rises from 4 % of WT to 37 % of WT.
